Experimental findings from the DeepSol protein solubility set are described below.

This series is described as follows: soluble on expression in E. coli; label from the status in PepcDB or PDB records.
Take “MGHHHHHHSHMEKCSVGGLELTEQTPALLGNMAMATSLMDIGDSFGHPACPLVSRSRNSPVEDDDDDDDVVFIESIQPPSISAPAIADQRNFIFASSKNEKPQGNYSVIPPSSRDLASQKGNISETIVIDDEEDIETNGGAEKKSSCFIEWGLPGTKNKTNDLDFSTSSLSRSKVNAGMGNSGITTELTLKYIITNVTTLETGISSVNAGQDVNIIITYKTSL”: the “soluble on expression in E. coli” value was “not soluble”. To “MTHVTPFSNPFLLGFETIEKTLRRIGKADETYPAYNIERLHKNDDASHIRITLAVAGFKVNNLNILLDDNQLIIHGKQTDSQNHQYLYRGIAARQFQRTFVLVEGMHVTNAELKNGLLSINLYQPKTKKQMKQIPIKVSNKS” belongs “not soluble”; to “MSPTSRPATGASLSAARRSREVADTVGGPVVDVLVVGLGATGAGAALDAAARGLGVVAVDAHDLAFGTSRWSSKLIHGGLRYLASGQLDVAHESAVERGVLMERTAPHLVRAQPFVLPLTPLVSRGQGALAWAGFRAGDTLRLAARTARATLPAPRRLSAVETRHLAPALRSDRLRGGLLSWDGRLADDARLVTALARTAAARGARILTRVRALELTGSGARVRDETTGEEGVIRARAVVNASGVWAGDLVDGIRIRPSRGTHLVLRSDRLGPLPAGLHVPIPGETNRFVLVLPQDDGRVYVGLTDEPVDGDVPDVPEVPETDVGFLLDVLGSVLDVPVHREDVVGAFAGLRPLLDTAPSDRPGAAPRTADVSRRHAVLTSSEGVITVVGGKLTTYRRMAEDAVDAAVAARGLAAGPSPTAALPLVGAAAPHTLAGVRAPRRLVRRYGTEAPAVQALASREPCLAERVLPGHPVTGAELVWALRHEGALDEADLLDRRTRVGLVPEDRAAALGAVRDLVGEVTADPRLEHHHHHH”, “not soluble”; to “MTAAIAAPAYDAIVIGSGIGGLVTATQLAAKGAKVLVLERYLIPGGSAGWFEREGYRFDFGASIIFGFGDPGTTNLLTPPLADVGQALETIPDPVQIHYHLPNQLDLKVHRDYEAFLQELIAQFPQEAEGIRRFYDECWQVFNCLNAMPLLSLEEPKYLFNVFLQHPLACLGLVKYLPQNVGDIARRYIRNPDLLKFIDMECYCWSVVPATMTPMINAGMVFSDRHYGGINYPKGGVGRIAEKLVAGLEAKGSSIRYKARVTRILTEKGRAIGVELADGEKLYAKRIISNATRWNTFG”, “soluble”. To “MMKVLAFDTSSKALSVAVLNNMECLATVTINIKKNHSINLMPAIDFLMQSIDLEPQDLDRIVVAEGPGSYTGLRVAVATAKMLAYTLKIDLVGVSSLYALTNGFSENDLLVPLIDARRNNVYVGFYQNGDTVKPDCHTSLEEVLQEVGNKANVHFVGEVAAFFDQIKKALPHAKITETLPCAVAIGRKGQKMKSVNVDAFVPRYLKRVEAEENWLKNHCETNTEEYIKRVLEHHHHHH” belongs “not soluble”; to “TQEKRSYMEKLSDENGIISALAFDQRGALKRLMAQYQTQEPTIAQMEELKVLVAEELTPYASSMLLDPEYGLPAAKHLDKNAGLLLAYEKTGYDTTSTKRLPDCLVEWSAKRLKKQGADAVKFLLYYDVDGDEEVNQQKQAYIERIGSECKAEDIPFFLEILAYDETITDAASVEYAKVKPHKVLDAMKVFSDERFGIDVLKVEVPVNMKYVEGFGDGPIVHTQDQAANFFKQQDQATPLPYIYLSAGVSAKLFQDTLVFAKESGANFNGVLCGRATWAGSVKDYIEKGEAAARQWLRTEGFKNIDELNKVLKATATSWKE”, “not soluble”; to “MAHHHHHHMNCSSTLACHAVVSAPSTASLITSCWTPQQHCYRQLMKSLRAAYFHDRSKLFWSRHRVLVEFYKYSEEANEEAVKQLVAIGLEVAAFIDHHMRTDVERIVKHNETMMALPVAQAKKFRSDYLLAEKQHDSWCKQKIKNIMKRRPPPPYPFF”, “not soluble”. To “MAVMIVGGGMAGATLALAISRLSQGTIPVDLIEAYSPLDKEHPGFDARALALSDGTRQQLAALGIWQAMSGNATAITDIHVSERGHASVVNLHAADYHVQALGHVVELHDVGQRLFSLLQQAPGVRLHCPAKVVAVTRTQENATLTLDNGTALTGQLLVAADGSHSMLSQSCGIHWQQHEYDQVAVIANVTTGEPHRGRAFERFTPHGPLALLPMSNGRSSLVWCHDKHRQHDVDGWSETEFRQQLQLAFGWRLGQFTHIGERHSYPLRLLTASQHTSHRLALVGNAAQTLHPIAGQGFNLGIRDVMSLAETLVEAVKNQQDIGQYSVLSRYQQRREPDQHTTVAITDGLVRLFANRYTALAVGRNLGLIAMNNLPLMRDAFARRTLGWVERLEHHHHHH” belongs “not soluble”; to “AHHHHHHGSGVEKVPKYDIPVKKVEYVFIELDKMKPHEQLVQRELEDFIESVTGSGIFWKPMLLAKIPGTDEYLIVDGHHRWAGLQKLGAKRAPSVILDYFDEGVKVYTWYPAFKGDVNKVIERLKAEGLEVIEDEKAEEKAEKGEIAFALIGEKSFAIPGGLEEQKKVSKVLDEMDQAKEIELVYYGLKEDAKADMEKGEIDYVFIRKAPTKEEVMELVKRGEVFSPKTTRHVLPFIPDKIDVKLEDLF”, “soluble”; to “MNSCWAKGKLMCEGRPASGVKVKLMESDNSFLPGFLDRDDKMASGKADSNGEFNLSGSTKEITGIEPYLAVFHDCKDGITPCQRVLRINIPKSYANWGSSAEKTFNAGNLELAGKFPGETRSCFN”, “not soluble”.

As to “MAKITEENYVSLEDLMQLLNSSESTIRRDLGELEQEGRLHRVHGGAELFHSLQEELSNQEKSVKNSHIKKAIAQRASQLIYDNDVIFIDAGTTTEFLLPFLQAKNLTVVTNSIHHAARLVELSIETIIVGGYVKQTTDASIGNVALEQIRQMNFDKAFLGMNGVDDSYLTTPDMEEAVIKKAVLSNAKLAYILVDGTKIGQVSFVKVAPINDVTIITLGGSASILKQIKEKAKVIEL”, the “soluble on expression in E. coli” value is “soluble”. Take “MYCTIDDLLGQIDKSKLIELTNDRADPAVDENGQEIIHEGNANSAIEAATAVVNTYIAMRYPVPLSPVPKIVSKLTADIAIYNLFTRHYNDEDNVFVRRYRDAIRLLEKIAADEVKLTANESGIRTYARRKVFGEDFRRMYD”: the “soluble on expression in E. coli” value is recorded as “not soluble”. “MSLLSKFKRNKHQQHLAQLPKISQSVDDVDFFYTPATFRETLLEKIASATQRICIVALYLEQDDGGKGILDALYAAKRQRPELDVRVLVDWHRAQRGRIGAAASNTNADWYCRLAQENPGIDVPVYGVPINTREALGVLHFKGFIIDDSVLYSGASLNDVYLHQHDKYRYDRYQLIRNRQMADIMFDWVTQNLMNGRGVNRLDNTQRPKSPEIKNDIRLYRQELRDASYHFQGDANDEQLSVTPLVGLGKSSLLNKTIFHLMPCAEHKLTICTPYFNLPAVLVRNIIQLLRDGKKVEIIVGDKTANDFYIPEDEPFKIIGALPYLYEINLRRFLSRLQYYVNTDQLVVRLWKDDDNTYHLKGMWVDDKWMLLTGNNLNPRAWRLDLENAILIHDPKQELAPQREKELELIRTHTTIVKHYRDLQSIADYPIKVRKLIRRLRRIRIDRLISRILEGHHHHHH”: the “soluble on expression in E. coli” value is on record as “soluble”. To “MKSVKEIRKSQVNSMISDQYEIFHVKDMVSPEKTIYHYHDFYEVHCTLKGVATFFLDGHQFDVEAGTVLLIHYHDLHRIIKQSTDDFERMYIFLTPDFLQQRSSKRTNLSACFQHFGQRRSKVIKVDVAKLANYLTPLDHSPLPEEYGADVRYEQQLLDFLIYLNQLVLKEENESQPKQMIENER” belongs “not soluble”; to “MSLSKLGIIGLGKVGTQVLTDVQQLNLFSEIILIDDRADVASGEALDHIHSQGLINTAHIKIRSGVYQDLTDADFIVIAASEATDKNNGDRTLLAQGNHDIIKGIMSQIAEVTQEAVVILISNPVDSMVYFANQIDYPAHKIIGTGTALETSRFKTIIADHYQIDPNNVEAFVIGEHGQHAIPVWSKVHIHGMELSEFEALSDRPAIDKSHISSIINEVSMDVFYQKGWTNAAISKVTSFLIQSIALDQRTITPLTSLSSEYGLEDGAFSLPTLIDKKGIVQRFAITLDKEEERELKEAYEYIRQTIHTAQEGHHHHHH”, “soluble”; to “MGSDKIHHHHHHMKELAIASRDLVSPDGLAGYLRFVNAQPLLRPEEERDLARRLRDHGDVDAAKDLVLSHLRFVVRVARGYRGYGLQEADLIQEGNIGLMKAVKRYDPDHGVRLVSFAVHWVKAEIHEFILRNWRIVKVATTKAQRKLFFNLRSSRSHTGWMSGEESAAMADDLGVTQAQVLEMEGRMSGYDYSLNLEPDEEREGGRAPDLADPTGSPIEQLVERDWDQQQHRALHTALSALPQRDRYIIENRWLSDDPKTLQVLGDELGVSAERVRQLEKSSMGKLRQQMLTTAAVA”, “not soluble”. Regarding “MGSDKIHHHHHHVKRFDWYTEIHRLDAEADCRRITEILTTHEFPWDIEQALSLALYRTYAVPSIGQLLAETREFLDRTQRRSDDTALILTEIMRHGFEPGRGRDALRRMNQMHRSYDISNDDYLYVLSTFVVMPVRWINDLGYGWRRLTEHEITANTNYYRLLGKHMGIKEIPETYDEFYELFDSYEIAHFGYSEGGRAVSDATLRLMVDTVPRWQQPVFRKFTMALLDDRLIQAFRYDPPSRFWRTAAHLAMWLRAKIVRFMPPRVEPYRIENNPKIKSYPNGYDPRRIGTFPKGCPVPHDMVTIEIPETGARIPAPGQELAPQGQDARA”, the “soluble on expression in E. coli” value was “not soluble”. To “MSLSQQVPAASFTLLDGQKLSTQDLKGKVYLVNFWATSCATCVKEMPNMIQTYNKFKGQGLEFVAVAMSYDPPMYVMNYSQTRQLPFKVAMDADGAAARAFGDVQLTPTTFLVDRNGRILRRYVGEPEWASFETLLRDTLAKQAEGLITITTDPNSSSVDKLAAALEHHHHHH” belongs “soluble”; to “SRIKMKKARKILAEKRAAAPVVSVPCIPPHRLSKITNRLTIQRKSQFMQRLHSYWTLKRQSRNGVPLLRRLQTHLQSQRNCDQVGRDSEDKNWALKEQLKSWQRLRHDLERARLLVELIRKREKLKRETIKVQQIAMEMQLT”, “not soluble”; to “MGSDKIHHHHHHMKIVKISPRGYCYGVVDAMVIARNAALDTSLPRPIYILGMIVHNKHVTDAFEEDGIITLDGPSRLDILDKIDSGTVIFTAHGVSPEVKQRAKEKGLTTIDATCPDVTKTHDLIEAKKAEGYHVIYIGKKNHPEPEGAVGIAPDIVHLIERADDLKTLEIPTDKILVTNQTTMSQWDVQHLMEDIQKKFPTAEFHKEICLATQVRQEAVAKQADVADLTIVVGDPKSNNSNRLAQVSQEIAGTKAYRVADVSEIKLEWLQGVENVAVTAGASTPTPITKEVIAFLEQYDPMNPATWERVRKVPLQKILPRVKVKKEQ”, “not soluble”. To “MTERILEVNDLHVSFDITAGEVQAVRGVDFYLNKGETLAIVGESGSGKSVTTKAITKLFQGDTGRIKKGEILFLGEDLAKKPENELIKLRGKDISMIFQDPMTSLNPTMQIGKQVMEPLIKHKNYSKAQAKKRALEILNLVGLPNAEKRFKAYPHQFSGGQRQRIVIATALACEPKVLIADEPTTALDVTMQAQILDLMKELQQKIDTAIIFITHDLGVVANIADRVAVMYGGQMVETGDVNEIFYDPKHPYTWGLLSSMPDLSTTNDTPLLAIPGAPPDLLHPPKGDAFARRSQYALDIDFKVEPPWFKVSPTHFVKSWLLDARAPKVELPELVKQRMKPMPNNYEKPLKVERVSFNEK” belongs “not soluble”.
